Data on two molecules can be found in article PMC11143374, “Conformations of Bcs1L undergoing ATP hydrolysis suggest a concerted translocation mechanism for folded iron-sulfur protein substrate” (Nature Communications, 2024).

For test [1], the target named is AAA domain of mBcs1L (ΔNmBcs1L, residues 151-420) (mouse) (UniProt Q9CZP5). The test can be described thus: native gel or EMSA; BN-PAGE of ΔNmBcs1L with AMP-PNP or ATPγS. On the technique in general: In EMSA bound probe runs differently from free probe, usually more slowly.
Test [2] has as its target T1, mouse Bcs1L (mBcs1L), wild type, hexahistidine-tagged (mouse, UniProt Q9CZP5 1-418).
T1 sequence (looked up): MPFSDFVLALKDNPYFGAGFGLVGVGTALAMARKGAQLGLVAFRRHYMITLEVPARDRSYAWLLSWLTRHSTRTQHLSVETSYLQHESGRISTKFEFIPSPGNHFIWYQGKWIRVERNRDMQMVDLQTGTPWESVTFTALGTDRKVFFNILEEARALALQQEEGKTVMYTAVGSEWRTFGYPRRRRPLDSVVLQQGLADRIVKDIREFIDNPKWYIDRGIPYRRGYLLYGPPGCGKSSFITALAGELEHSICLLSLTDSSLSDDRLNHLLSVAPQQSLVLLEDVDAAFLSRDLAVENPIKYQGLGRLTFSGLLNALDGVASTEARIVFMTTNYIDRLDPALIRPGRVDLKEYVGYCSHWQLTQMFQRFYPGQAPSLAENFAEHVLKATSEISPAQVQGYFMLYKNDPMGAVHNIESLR
The test can be described thus: cell-based or functional assay.

As a reminder, the stoichiometry N is a count of units in the complex or per binding partner. Consider “AAA domain of mBcs1L (ΔNmBcs1L, residues 151-420) (from UniProt Q9CZP5 151-418) (domain or fragment)”, for which the stoichiometry N in test [1] turned out to be 7.

B1: extrinsic domain of the Rieske iron-sulfur protein (ISP-ED), bovine (domain or fragment, UniProt P13272 146-274, looked up)
chain: VLAMSKIEIKLSDIPEGKNMAFKWRGKPLFVRHRTKKEIDQEAAVEVSQLRDPQHDLERVKKPEWVILIGVCTHLGCVPIANAGDFGGYYCPCHGSHYDASGRIRKGPAPLNLEVPSYEFTSDDMVIVG
With B1, in test [2], the “ATPase activity of mBcs1L (malachite green, 37 °C, 15 min) at different ISP-ED:mBcs1L heptamer molar ratios; maximal stimulation at a ratio of 3-4, no further change at higher ratios” value was around 50 % stimulation.
